What is called Kd is the concentration at which binding is half-saturated. A lower Kd goes with a tighter complex. In general, kon refers to the second-order rate constant of association. A lower kon goes with slow association. In general, koff refers to a measure of how fast the partners let go of each other. Read a high koff as a short-lived complex.

The target of one test is T1, Human Serum Albumin (human, UniProt P02768 25-609).
T1 construct: Non-target control antigen in the ELISAs; also called HSA
Briefly: monoclonal phage ELISA, HSA as control antigen, OD450. For orientation: An ELISA detects its analyte on a solid surface through an enzyme-linked reagent.

Another test deals with T2, human DLL4 (human, UniProt Q9NR61 27-524, limits assumed).
T2 construct: Antigen of the monoclonal phage ELISA; also called hDLL4
Put plainly: monoclonal phage ELISA on hDLL4, with HSA as control antigen, OD450.

In another test the target is hDLL4-Fc (human, UniProt Q9NR61 27-524, limits assumed). Put plainly: direct binding ELISA on 1 µg/mL coated hDLL4-Fc, protein input unquantified, detection with anti-poly-histidine-HRP.
Test [1] concerns the target T3, human ROR1 (human, UniProt Q01973 30-403, limits assumed).
T3 construct: The general ELISA protocol coats hROR1-Fc; also called hROR1; huROR1
Briefly: BLI against hROR1.

Test [2] deals with T3, human ROR1. Briefly: kinetics against hROR1; method not named in the table (kdis heading as in the BLI table).
The target in test [3] is T3, human ROR1. Briefly: BIAcore (SPR). For orientation: In SPR one partner is held on a chip, and binding of the other changes the refractive index at the surface.

Chain of hDLL4-Fc (Q9NR61 27-524 limits assumed): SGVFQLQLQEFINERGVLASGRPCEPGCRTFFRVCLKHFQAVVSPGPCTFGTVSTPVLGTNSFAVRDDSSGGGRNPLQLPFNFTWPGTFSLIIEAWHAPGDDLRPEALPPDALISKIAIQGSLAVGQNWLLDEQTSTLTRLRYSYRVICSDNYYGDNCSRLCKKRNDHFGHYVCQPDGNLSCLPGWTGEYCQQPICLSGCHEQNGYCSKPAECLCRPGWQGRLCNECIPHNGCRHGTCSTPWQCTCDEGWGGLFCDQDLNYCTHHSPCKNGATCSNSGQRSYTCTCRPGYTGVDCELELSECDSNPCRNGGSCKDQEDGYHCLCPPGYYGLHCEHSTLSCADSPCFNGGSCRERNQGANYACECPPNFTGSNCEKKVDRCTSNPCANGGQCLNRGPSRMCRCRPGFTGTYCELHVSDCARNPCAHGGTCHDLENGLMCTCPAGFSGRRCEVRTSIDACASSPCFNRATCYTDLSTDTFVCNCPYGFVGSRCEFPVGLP
T2 sequence (Q9NR61 27-524 limits assumed): as above
T3 sequence (Q01973 30-403 limits assumed): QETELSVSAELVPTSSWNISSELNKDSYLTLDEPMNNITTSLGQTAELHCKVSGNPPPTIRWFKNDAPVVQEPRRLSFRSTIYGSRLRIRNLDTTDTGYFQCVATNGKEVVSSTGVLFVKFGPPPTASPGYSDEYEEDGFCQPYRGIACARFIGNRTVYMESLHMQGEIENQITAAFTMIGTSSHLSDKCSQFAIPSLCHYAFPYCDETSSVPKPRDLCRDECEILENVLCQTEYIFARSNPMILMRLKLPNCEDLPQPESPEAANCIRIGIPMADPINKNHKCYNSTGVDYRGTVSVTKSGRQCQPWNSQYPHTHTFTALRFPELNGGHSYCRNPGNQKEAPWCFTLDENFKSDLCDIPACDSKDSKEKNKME

B1: E4V2Ee8 (VNAR)
VNAR: ASVNQSPSSLSASVGDRVTITCVLTGASYWYSTSWFRKNPGTTDEESMSNGGRYVESVNKRPMSFTLTISSLQPEDFATYYCRAWTSFEEQVKDVYGGGTKVEIK
notes: Clone from the E4-V2 humanised library
Regarding B1, the binding result with Human Serum Albumin is on record as “no binding”; with human DLL4, “binds”.

B2: E4V2Cc8 (VNAR)
VNAR: ASVNQSPSSLSASVGDRVTITCVLTSAGYLYATSWFRKNPGTSDKESMIIGRRYVESVNNRSMSFTLTISSLQPEDFATYYCRAWTSFEEQVKDVYGGGTKVEIK
notes: as for B1
As to B2, the values for the binding result with Human Serum Albumin and in the test with human DLL4 were “no binding” and “binds”, respectively.

B3: E4V2B9 (VNAR)
VNAR: ASVNQSPSSLSASVGDRVTITCVLTGTGYWYSTSWFRKNPGTSNEDRIIIGGRYVESVNKGTKSFTLTISSLQPEDFATYYCRAWTSFEEQVKDVYGGGTKVEIK
notes: as for B1
For B3, the binding result with human DLL4 was “binds”.

B4: E4V2Gg11 (VNAR)
VNAR: ASVNQSPSSLSASVGDRVTITCVLTGTRYWFSTSWFRKNPGTTDEDSISNGGRYVESVNNGSMSFTLTISSLQPEDFATYYCRAWTSFEEQVKDVYGGGTKVEIK
notes: as for B1
On to B4, for which the binding result with Human Serum Albumin is recorded as “no binding”; with human DLL4, “binds”.

B5: E4V2D10 (VNAR)
VNAR: ASVNQSPSSLSASVGDRVTITCVLTGAGYWFATSWFRKNPGTSDKESISNSGRYVESVNKRSMSFTLTISSLQPEDFATYYCRAWTSFEEQVKDVYGGGTKVEIK
notes: as for B1
As to B5, the results for the binding result with Human Serum Albumin and with human DLL4 were “no binding” and “binds”, respectively.

B6: E4V2Cc9 (VNAR)
VNAR: ASVNQSPSSLSASVGDRVTITCVLTGTEYLYSTSWFRKNPGTPNEDRMINGGRYVESVNKGTMSFTLTISSLQPEDFATYYCRAWTSFEEQVKDVYGGGTKVEIK
notes: as for B1
Consider B6, for which the binding result is “no binding” in the test with Human Serum Albumin and “binds” with human DLL4.

B7: E4V2Ee6 (VNAR)
VNAR: ASVNQSPSSLSASVGDRVTITCVLTDTRYLYATSWFRKNPGTTNKESISNGGRYVESVNKRSMSFTLTISSLQPEDFATYYCRAWTSFEEQVKDVYGGGTKVEIK
notes: as for B1
For the molecule B7, the binding result was “no binding” with Human Serum Albumin and “binds” with human DLL4.

B8: 78WT (VNAR)
VNAR: TRVDQTPRTATKETGESLTINCVLTDTNYSLYATSWFRKNPGTTDWERMSIGGRYVESVNKGAKSFSLRIKDLTVADSATYICRAVWFPYFISDMWDVYGAGTVLTVN
notes: Parental non-humanised VNAR 78; also called native (WT) anti-DLL4 VNAR 78
As to B8, the binding result with hDLL4-Fc was “binds”.

B9: D3 V2 (VNAR)
VNAR: ASVNQSPSSLSASVGDRVTITCVLTDTSYGLYSTSWFRKNPGTTDWERMSIGGRYVESVNKRAKSFTLTISSLQPEDFATYYCKAQSGMAISTGSGHGYNWYDGAGTKVEIK
notes: Humanised VNAR (soloMER)
In the test with human ROR1 [1], B9 displayed a Kd of 18.9 nM and a kon of 1.85e+06 M⁻¹ s⁻¹. In the test with human ROR1 [2], this molecule yielded a Kd of 15.6 nM, a dissociation rate constant (koff) of 0.0238 s⁻¹ and a kon of 1.52e+06 M⁻¹ s⁻¹.

B10: D3 V4 (VNAR)
VNAR: ASVNQSPSSLSASVGDRVTITCVLTDTSYGLYSTSWYQQKPGTTDWERMSIGGRYVESVNKRAKSFTLTISSLQPEDFATYYCKAQSGMAISTGSGHGYNWYDGAGTKVEIK
notes: Humanised VNAR (soloMER)
Consider B10, for which, in the test with human ROR1 [1], the Kd was 58.5 nM and the kon amounted to 1.38e+06 M⁻¹ s⁻¹.

B11: D3 V5 (VNAR)
VNAR: ASVNQSPSSLSASVGDRVTITCVLTDTSYGLYSTSWYQQKPGTTDWERMSIGGRFSGSGSKRAKSFTLTISSLQPEDFATYYCKAQSGMAISTGSGHGYNWYDGAGTKVEIK
notes: Humanised VNAR (soloMER)
In the test with human ROR1 [1], B11 returned a Kd of 36.2 nM.

B12: 78-V3 (VNAR)
VNAR: TRVDQSPSSLSASVGDRVTITCVLTDTNYSLYATSWYQQKPGKTDWERMSIGGRYVESVNKGAKSFTLTISSLQPEDFATYYCRAVWFPYFISDMWDVYGGGTKVEIK
notes: Humanised VNAR (soloMER), poly-histidine tagged, expressed in E. coli; also called soloMER 78 variant V3
As to B12, the binding result with hDLL4-Fc is on record as “binds”.

B13: 78-V4 (VNAR)
VNAR: TRVDQSPSSLSASVGDRVTITCVLTDTNYSLYATSWFRKNPGTTDWERMSIGGRFSGSGSKGAKSFTLTISSLQPEDFATYYCRAVWFPYFISDMWDVYGGGTKVEIK
notes: Humanised VNAR (soloMER), poly-histidine tagged, expressed in E. coli; also called soloMER 78 variant V4
On to B13, for which the binding result in the test with hDLL4-Fc is on record as “binds”.

B14: 78-V5 (VNAR)
VNAR: TRVDQSPSSLSASVGDRVTITCVLTDTNYSLYATSWYQQKPGKTDWERMSIGGRFSGSGSKGAKSFTLTISSLQPEDFATYYCRAVWFPYFISDMWDVYGGGTKVEIK
notes: Humanised VNAR (soloMER), poly-histidine tagged, expressed in E. coli; also called soloMER 78 variant V5
In the case of B14, in the test with hDLL4-Fc, the binding result is “binds”.

B15: E4V2F3 (VNAR)
VNAR: ASVNQSPSSLSASVGDRVTITCVLTDTNYWYSTSWFRKNPGTTNEDRIIISGRYVESVNNGPKSFTLTISSLQPEDFATYYCRAWTSFEEQVKDVYGGGTKVEIK
notes: as for B1
With B15, the binding result is recorded as “no binding” in the test with Human Serum Albumin and “binds” with human DLL4.

B16: P3A1 WT dimer HisMyc (other)
VNAR 1: TRVDQTPRTATKETGESLTINCVLTDTSYGLYSTSWFRKNPGTTDWERMSIGGRYVESVNKGAKSFSLRIKDLTVADSATYYCKAREARHPWLRQWYDGAGTVLTVN
VNAR 2: TRVDQTPRTATKETGESLTINCVLTDTSYGLYSTSWFRKNPGTTDWERMSIGGRYVESVNKGAKSFSLRIKDLTVADSATYYCKAREARHPWLRQWYDGAGTVLTVN
modifications: In the real molecule the two VNAR copies form one polypeptide, joined by an unprinted short peptide linker and carrying a HisMyc tag. They are given here as two separate chains because the linker letters are unknown.
notes: VNAR dimer in one chain; also called parental WT clone P3A1; WT non-humanised P3A1 clone; not shown: The short peptide linker joining the two P3A1 copies and the HisMyc tag
In the test with human ROR1 [3], B16 registered a Kd of 0.302 nM.

B17: P3A1 V1 dimer HisMyc (other)
VNAR 1: TRVDQSPSSLSASVGDRVTITCVLTDTSYGLYSTSWFRKNPGTTDWERMSIGGRYVESVNKGAKSFTLTISSLQPEDFATYYCKAREARHPWLRQWYDGAGTKVEIK
VNAR 2: TRVDQSPSSLSASVGDRVTITCVLTDTSYGLYSTSWFRKNPGTTDWERMSIGGRYVESVNKGAKSFTLTISSLQPEDFATYYCKAREARHPWLRQWYDGAGTKVEIK
modifications: In the real molecule the two VNAR copies form one polypeptide, joined by an unprinted short peptide linker and carrying a HisMyc tag. They are given here as two separate chains because the linker letters are unknown.
notes: 2x P3A1 V1 joined with a short peptide linker, with a HisMyc tag; expressed in bacteria; not shown: The short peptide linker joining the two P3A1 V1 copies and the HisMyc tag
B17 had a Kd with human ROR1 [3] of 0.179 nM.

B18: E4 WT (VNAR)
VNAR: ASVNQTPRTATKETGESLTINCVLTDTKYLYSTSWFRKNPGTTDWERMSIGGRYVESVNKGAKSFSLRIKDLTVADSATYICRAWTSFEEQVKDVYGAGTVLTVN
notes: also called pre-humanised parental clone E4 WT; Wt DLL4 VNAR
As to B18, the binding result with hDLL4-Fc is “binds”; with Human Serum Albumin, “no binding”; in the test with human DLL4, “binds”.
